In PMC8373067, “The RGG domain in the C-terminus of the DEAD box helicases Dbp2 and Ded1 is necessary for G-quadruplex destabilization”:

Tests used:
[1] = target: T1, Ded1 WT (Schizosaccharomyces pombe, UniProt O13370 1-636); test: EMSA; K+, 2 mM Mg2+; EMSA: 0.4 nM 32P-oligo (0.2 nM in Fig S4), 50 mM Tris (pH not stated), 50 mM KCl (DNA) or NaCl (RNA), 2 mM MgCl2, 2 mM DTT, 0.25 mg/ml BSA, 10 min at 30 C; conditions: protein: recombinant; tags: C-terminal poly-His; label: 5'-32P; parallel G4, 5' A10 overhang
[2] = target: T2, Dbp2 WT (Schizosaccharomyces pombe, UniProt P24782 1-550); test: as above; conditions: protein: recombinant; tags: C-terminal poly-His; label: 5'-32P; parallel G4, 5' A10 overhang
[3] = target: T3, Oga1 WT (Schizosaccharomyces pombe, UniProt O42914 1-284); test: EMSA; up to 10 nM protein; EMSA: 0.4 nM 32P-oligo (0.2 nM in Fig S4), 50 mM Tris (pH not stated), 50 mM KCl (DNA) or NaCl (RNA), 2 mM MgCl2, 2 mM DTT, 0.25 mg/ml BSA, 10 min at 30 C; conditions: protein: recombinant; tags: C-terminal poly-His; label: 5'-32P; single strand
T3 sequence: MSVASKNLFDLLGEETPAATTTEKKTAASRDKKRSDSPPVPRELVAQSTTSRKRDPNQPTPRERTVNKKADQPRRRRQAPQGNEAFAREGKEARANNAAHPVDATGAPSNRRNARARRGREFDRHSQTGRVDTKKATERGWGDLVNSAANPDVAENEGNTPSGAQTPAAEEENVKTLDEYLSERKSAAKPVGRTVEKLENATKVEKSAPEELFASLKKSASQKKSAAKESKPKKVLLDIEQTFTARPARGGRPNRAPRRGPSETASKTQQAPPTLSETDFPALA

[4] = target: T1, Ded1 WT; test: as above; conditions: protein: recombinant; tags: C-terminal poly-His; label: 5'-32P; single strand
[5] = target: T2, Dbp2 WT; test: as above; conditions: protein: recombinant; tags: C-terminal poly-His; label: 5'-32P; single strand
[6] = target: T3, Oga1 WT; test: EMSA; 10 nM protein, Na+; EMSA: 0.4 nM 32P-oligo (0.2 nM in Fig S4), 50 mM Tris (pH not stated), 50 mM KCl (DNA) or NaCl (RNA), 2 mM MgCl2, 2 mM DTT, 0.25 mg/ml BSA, 10 min at 30 C; conditions: protein: recombinant, tags: C-terminal poly-His, label: 5'-32P
[7] = target: T1, Ded1 WT; test: as above; conditions: protein: recombinant, tags: C-terminal poly-His, label: 5'-32P
[8] = target: T2, Dbp2 WT; test: as above; conditions: protein: recombinant, tags: C-terminal poly-His, label: 5'-32P
[9] = parallel G4, 5' U5 and 3' U5 overhangs

T1 sequence (O13370 whole entry): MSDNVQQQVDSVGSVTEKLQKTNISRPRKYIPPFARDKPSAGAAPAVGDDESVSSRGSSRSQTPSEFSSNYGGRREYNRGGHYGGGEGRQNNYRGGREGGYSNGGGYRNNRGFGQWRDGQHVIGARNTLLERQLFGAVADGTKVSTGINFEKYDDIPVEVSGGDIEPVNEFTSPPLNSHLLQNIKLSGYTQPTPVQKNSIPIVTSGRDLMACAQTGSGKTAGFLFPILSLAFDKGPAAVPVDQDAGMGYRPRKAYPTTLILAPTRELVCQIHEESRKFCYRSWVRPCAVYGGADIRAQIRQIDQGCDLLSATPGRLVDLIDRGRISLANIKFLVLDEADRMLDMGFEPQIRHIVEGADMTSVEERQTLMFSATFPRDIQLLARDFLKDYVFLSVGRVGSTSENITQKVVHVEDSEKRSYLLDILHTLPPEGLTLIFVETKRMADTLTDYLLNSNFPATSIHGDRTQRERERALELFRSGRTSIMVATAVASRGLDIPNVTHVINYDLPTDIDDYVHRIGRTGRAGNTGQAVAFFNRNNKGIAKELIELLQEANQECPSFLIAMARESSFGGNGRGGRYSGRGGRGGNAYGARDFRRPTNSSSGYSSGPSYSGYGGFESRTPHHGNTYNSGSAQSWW
T2 sequence (P24782 whole entry): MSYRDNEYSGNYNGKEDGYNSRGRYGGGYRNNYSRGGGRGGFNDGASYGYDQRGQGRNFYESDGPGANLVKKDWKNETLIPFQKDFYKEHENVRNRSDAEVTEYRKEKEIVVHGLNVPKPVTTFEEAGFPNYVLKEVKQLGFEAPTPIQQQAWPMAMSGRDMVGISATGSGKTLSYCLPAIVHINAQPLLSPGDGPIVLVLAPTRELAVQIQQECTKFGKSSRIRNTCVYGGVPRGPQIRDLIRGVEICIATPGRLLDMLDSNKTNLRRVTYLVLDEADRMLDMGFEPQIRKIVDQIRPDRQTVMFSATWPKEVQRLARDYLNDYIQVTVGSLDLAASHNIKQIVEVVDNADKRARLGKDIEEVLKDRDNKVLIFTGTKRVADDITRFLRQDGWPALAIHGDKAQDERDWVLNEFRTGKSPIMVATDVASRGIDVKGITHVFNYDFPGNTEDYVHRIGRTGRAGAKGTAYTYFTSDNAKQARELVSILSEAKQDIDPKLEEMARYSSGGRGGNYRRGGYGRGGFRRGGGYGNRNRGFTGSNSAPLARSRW

## AAAAAAAAAAGGGGAAGGGTGGGGCATGTTATGGG (structured_DNA) [10A-rDNA G4]
[1]
  Kd: 6.59 ± 0.1 nM
[2]
  Kd: 3.84 ± 1.06 nM

## AAAAAAAAAAGGTGCGAGGTGAGTGTGGAGTGAGG (ssDNA) [10A-rDNA scr]
[3]
  binding result: no binding
[4]
  binding result: no binding
[5]
  binding result: no binding

## AAAAAAAAAAGGGGAAGGGUGGGGCAUGUUAUGGG (structured_RNA) [5'-RNA-G4 (10A-G4 RNA)]
[6]
  binding result: binds
[7]
  binding result: binds
[8]
  binding result: binds

## UUUUUGGGGAAGGGUGGGGCAUGUUAUGGGUUUUU (structured_RNA) [5'-RNA-G4-3' (5U-G4-5U RNA)]
[6]; [9]
  binding result: binds
[7]; [9]
  binding result: binds
[8]; [9]
  binding result: binds
